The results in this text go back to IntAct's records for PubMed 17255092.

B1: SWI/SNF complex subunit SMARCC1 (Mus musculus), P97496 (parent)
chain: MAATAGGGPGAAAGAVGAGGAAAASGLAVYRRKDGGPASKFWESPDTVSQLDSVRVWLGKHYKKYVHADAPTNKTLAGLVVQLLQFQEDAFGKHVTNPAFTKLPAKCFMDFKAGGTLCHILGAAYKYKNEQGWRRFDLQNPSRMDRNVEMFMNIEKTLVQNNCLTRPNIYLIPDIDLKLANKLKDIIKRHQGTFTDEKSKASHHIYPYPSSQEDEEWLRPVMRRDKQVLVHWGFYPDSYDTWVHSNDVDAEIEDAPIPEKPWKVHVKWILDTDVFNEWMNEEDYEVDENRKPVSFRQRISTKNEEPVRSPERRDRKASANSRKRKPSPSPPPPTATESRKKSGKKGQASLYGKRRSQKEEDEQEDLTKDMEDPTPVPNIEEVVLPKNVNPKKDSENTPVKGGTVADLDEQDEEAVTTGGKEDEDPSKGDPSRSVDPGEDNVTEQTNHIIIPSYASWFDYNCIHVIERRALPEFFNGKNKSKTPEIYLAYRNFMIDTYRLNPQEYLTSTACRRNLTGDVCAVMRVHAFLEQWGLVNYQVDPESRPMAMGPPPTPHFNVLADTPSGLVPLHLRSPQVPAAQQMLNFPEKNKEKPIDLQNFGLRTDIYSKKTLAKSKGASAGREWTEQETLLLLEALEMYKDDWNKVSEHVGSRTQDECILHFLRLPIEDPYLENSDASLGPLAYQPVPFSQSGNPVMSTVAFLASVVDPRVASAAAKAALEEFSRVREEVPLELVEAHVKKVQEAARASGKVDPTYGLESSCIAGTGPDEPEKLEGSEEEKMETDPDGQQPEKAENKVENESDEGDKIQDRENEKNTEKEQDSDVSEDVKPEEKENEENKELTDTCKERESDAGKKKVEHEISEGNVATAAAAALASAATKAKHLAAVEERKIKSLVALLVETQMKKLEIKLRHFEELETIMDREKEALEQQRQQLLTERQNFHMEQLKYAELRARQQMEQQQQHGQTPQQAHQHTGGPGMAPLGATGHPGMMPHQQPPPYPLMHHQMPPPHPPQPGQIPGPGSMMPGQPMPGRMIPAVAANIHPTGSGPTPPGMPPMPGNILGPRVPLTAPNGMYPPPPQQQQPPPPADGVPPPPAPGPPASATP

Variants of B1 are the subject of one experiment. The settings on record: with snf5_mouse Smarcb1, Q9Z0H3.
Sequence of snf5_mouse Smarcb1, Q9Z0H3 (Q9Z0H3 whole entry): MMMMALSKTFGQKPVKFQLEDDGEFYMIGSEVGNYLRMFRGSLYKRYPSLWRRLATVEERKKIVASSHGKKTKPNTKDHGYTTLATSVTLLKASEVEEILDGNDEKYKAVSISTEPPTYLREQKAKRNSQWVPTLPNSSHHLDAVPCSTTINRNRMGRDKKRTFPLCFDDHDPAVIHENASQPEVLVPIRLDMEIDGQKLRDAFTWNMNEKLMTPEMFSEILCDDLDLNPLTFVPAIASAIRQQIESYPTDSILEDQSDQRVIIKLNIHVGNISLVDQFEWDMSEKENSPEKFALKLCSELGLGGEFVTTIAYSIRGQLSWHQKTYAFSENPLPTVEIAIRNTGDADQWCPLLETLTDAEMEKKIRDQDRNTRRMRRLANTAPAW
In the case of L533A;N535A, the “effect of a mutation on the interaction” value is “disrupting interaction”.

As for N535A, the “effect of a mutation on the interaction” value is given as “decreasing interaction”.

Consider L533A, for which the “effect of a mutation on the interaction” value is given as “decreasing interaction”.

The variants in the next experiment derive from B1. The settings on record: with snf5_mouse Smarcb1, Q9Z0H3. This is another data set of the same source.
Turning to L533A;N535A, the “effect of a mutation on the interaction” value is “disrupting interaction strength”.
